From IntAct's records for PubMed 29892012 come the findings set out here.

Sequences and labels used below:
B1: TBC1 domain family member 22B (Homo sapiens), Q9NU19 (parent)
chain: MAAENSKQFWKRSAKLPGSIQPVYGAQHPPLDPRLTKNFIKERSKVNTVPLKNKKASSFHEFARNTSDAWDIGDDEEEDFSSPSFQTLNSKVALATAAQVLENHSKLRVKPERSQSTTSDVPANYKVIKSSSDAQLSRNSSDTCLRNPLHKQQSLPLRPIIPLVARISDQNASGAPPMTVREKTRLEKFRQLLSSQNTDLDELRKCSWPGVPREVRPITWRLLSGYLPANTERRKLTLQRKREEYFGFIEQYYDSRNEEHHQDTYRQIHIDIPRTNPLIPLFQQPLVQEIFERILFIWAIRHPASGYVQGINDLVTPFFVVFLSEYVEEDVENFDVTNLSQDMLRSIEADSFWCMSKLLDGIQDNYTFAQPGIQKKVKALEELVSRIDEQVHNHFRRYEVEYLQFAFRWMNNLLMRELPLRCTIRLWDTYQSEPEGFSHFHLYVCAAFLIKWRKEILDEEDFQGLLMLLQNLPTIHWGNEEIGLLLAEAYRLKYMFADAPNHYRR
partner: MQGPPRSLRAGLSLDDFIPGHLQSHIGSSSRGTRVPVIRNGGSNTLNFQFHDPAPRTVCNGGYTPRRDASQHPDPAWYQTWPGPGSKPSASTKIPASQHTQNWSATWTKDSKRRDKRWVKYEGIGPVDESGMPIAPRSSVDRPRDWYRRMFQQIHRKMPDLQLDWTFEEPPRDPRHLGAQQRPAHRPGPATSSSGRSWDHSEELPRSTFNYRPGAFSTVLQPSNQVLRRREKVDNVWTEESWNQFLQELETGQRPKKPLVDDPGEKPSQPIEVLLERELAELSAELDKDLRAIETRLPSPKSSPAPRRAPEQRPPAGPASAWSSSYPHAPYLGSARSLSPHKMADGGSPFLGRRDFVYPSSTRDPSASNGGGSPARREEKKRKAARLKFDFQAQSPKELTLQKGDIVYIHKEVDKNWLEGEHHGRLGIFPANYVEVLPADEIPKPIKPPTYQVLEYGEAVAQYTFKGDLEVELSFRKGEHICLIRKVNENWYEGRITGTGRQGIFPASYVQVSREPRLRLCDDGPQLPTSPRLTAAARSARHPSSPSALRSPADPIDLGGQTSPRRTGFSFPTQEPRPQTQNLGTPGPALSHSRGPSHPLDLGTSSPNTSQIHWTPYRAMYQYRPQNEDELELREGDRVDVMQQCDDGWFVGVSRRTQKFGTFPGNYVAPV
B2: Coiled-coil alpha-helical rod protein 1 (Homo sapiens), Q8TD31 (parent)
chain: MFPPSGSTGLIPPSHFQARPLSTLPRMAPTWLSDIPLVQPPGHQDVSERRLDTQRPQVTMWERDVSSDRQEPGRRGRSWGLEGSQALSQQAEVIVRQLQELRRLEEEVRLLRETSLQQKMRLEAQAMELEALARAEKAGRAEAEGLRAALAGAEVVRKNLEEGSQRELEEVQRLHQEQLSSLTQAHEEALSSLTSKAEGLEKSLSSLETRRAGEAKELAEAQREAELLRKQLSKTQEDLEAQVTLVENLRKYVGEQVPSEVHSQTWELERQKLLETMQHLQEDRDSLHATAELLQVRVQSLTHILALQEEELTRKVQPSDSLEPEFTRKCQSLLNRWREKVFALMVQLKAQELEHSDSVKQLKGQVASLQEKVTSQSQEQAILQRSLQDKAAEVEVERMGAKGLQLELSRAQEARRRWQQQTASAEEQLRLVVNAVSSSQIWLETTMAKVEGAAAQLPSLNNRLSYAVRKVHTIRGLIARKLALAQLRQESCPLPPPVTDVSLELQQLREERNRLDAELQLSARLIQQEVGRAREQGEAERQQLSKVAQQLEQELQQTQESLASLGLQLEVARQGQQESTEEAASLRQELTQQQELYGQALQEKVAEVETRLREQLSDTERRLNEARREHAKAVVSLRQIQRRAAQEKERSQELRRLQEEARKEEGQRLARRLQELERDKNLMLATLQQEGLLSRYKQQRLLTVLPSLLDKKKSVVSSPRPPECSASAPVAAAVPTRESIKGSLSVLLDDLQDLSEAISKEEAVCQGDNLDRCSSSNPQMSS
partner: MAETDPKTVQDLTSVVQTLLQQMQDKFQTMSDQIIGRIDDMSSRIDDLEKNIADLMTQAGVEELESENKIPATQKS
B3: Coiled-coil alpha-helical rod protein 1 (Homo sapiens), Q8TD31 (parent)
chain: B2 chain
partner: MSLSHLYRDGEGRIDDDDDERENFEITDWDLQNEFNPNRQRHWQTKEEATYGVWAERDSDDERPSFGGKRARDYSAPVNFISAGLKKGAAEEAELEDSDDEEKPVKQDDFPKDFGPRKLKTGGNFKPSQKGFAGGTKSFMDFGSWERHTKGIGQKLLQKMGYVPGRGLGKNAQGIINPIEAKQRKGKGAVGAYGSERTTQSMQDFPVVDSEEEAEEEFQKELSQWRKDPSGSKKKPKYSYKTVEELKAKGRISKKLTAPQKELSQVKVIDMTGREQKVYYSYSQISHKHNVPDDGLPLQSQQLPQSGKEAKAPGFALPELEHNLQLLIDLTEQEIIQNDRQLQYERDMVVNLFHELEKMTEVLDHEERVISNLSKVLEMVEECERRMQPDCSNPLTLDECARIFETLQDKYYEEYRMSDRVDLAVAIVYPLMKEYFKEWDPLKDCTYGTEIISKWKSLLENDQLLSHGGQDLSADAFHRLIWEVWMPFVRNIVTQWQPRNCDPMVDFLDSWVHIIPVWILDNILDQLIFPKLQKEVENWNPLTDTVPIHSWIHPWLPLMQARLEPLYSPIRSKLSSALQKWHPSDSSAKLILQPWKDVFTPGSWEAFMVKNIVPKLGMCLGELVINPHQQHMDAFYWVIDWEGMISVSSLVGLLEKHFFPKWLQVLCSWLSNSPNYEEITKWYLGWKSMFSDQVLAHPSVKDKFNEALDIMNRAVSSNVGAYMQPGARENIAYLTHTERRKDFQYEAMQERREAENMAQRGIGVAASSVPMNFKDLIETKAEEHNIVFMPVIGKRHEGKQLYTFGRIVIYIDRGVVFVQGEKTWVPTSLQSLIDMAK
B4: Coiled-coil alpha-helical rod protein 1 (Homo sapiens), Q8TD31 (parent)
chain: B2 chain
partner: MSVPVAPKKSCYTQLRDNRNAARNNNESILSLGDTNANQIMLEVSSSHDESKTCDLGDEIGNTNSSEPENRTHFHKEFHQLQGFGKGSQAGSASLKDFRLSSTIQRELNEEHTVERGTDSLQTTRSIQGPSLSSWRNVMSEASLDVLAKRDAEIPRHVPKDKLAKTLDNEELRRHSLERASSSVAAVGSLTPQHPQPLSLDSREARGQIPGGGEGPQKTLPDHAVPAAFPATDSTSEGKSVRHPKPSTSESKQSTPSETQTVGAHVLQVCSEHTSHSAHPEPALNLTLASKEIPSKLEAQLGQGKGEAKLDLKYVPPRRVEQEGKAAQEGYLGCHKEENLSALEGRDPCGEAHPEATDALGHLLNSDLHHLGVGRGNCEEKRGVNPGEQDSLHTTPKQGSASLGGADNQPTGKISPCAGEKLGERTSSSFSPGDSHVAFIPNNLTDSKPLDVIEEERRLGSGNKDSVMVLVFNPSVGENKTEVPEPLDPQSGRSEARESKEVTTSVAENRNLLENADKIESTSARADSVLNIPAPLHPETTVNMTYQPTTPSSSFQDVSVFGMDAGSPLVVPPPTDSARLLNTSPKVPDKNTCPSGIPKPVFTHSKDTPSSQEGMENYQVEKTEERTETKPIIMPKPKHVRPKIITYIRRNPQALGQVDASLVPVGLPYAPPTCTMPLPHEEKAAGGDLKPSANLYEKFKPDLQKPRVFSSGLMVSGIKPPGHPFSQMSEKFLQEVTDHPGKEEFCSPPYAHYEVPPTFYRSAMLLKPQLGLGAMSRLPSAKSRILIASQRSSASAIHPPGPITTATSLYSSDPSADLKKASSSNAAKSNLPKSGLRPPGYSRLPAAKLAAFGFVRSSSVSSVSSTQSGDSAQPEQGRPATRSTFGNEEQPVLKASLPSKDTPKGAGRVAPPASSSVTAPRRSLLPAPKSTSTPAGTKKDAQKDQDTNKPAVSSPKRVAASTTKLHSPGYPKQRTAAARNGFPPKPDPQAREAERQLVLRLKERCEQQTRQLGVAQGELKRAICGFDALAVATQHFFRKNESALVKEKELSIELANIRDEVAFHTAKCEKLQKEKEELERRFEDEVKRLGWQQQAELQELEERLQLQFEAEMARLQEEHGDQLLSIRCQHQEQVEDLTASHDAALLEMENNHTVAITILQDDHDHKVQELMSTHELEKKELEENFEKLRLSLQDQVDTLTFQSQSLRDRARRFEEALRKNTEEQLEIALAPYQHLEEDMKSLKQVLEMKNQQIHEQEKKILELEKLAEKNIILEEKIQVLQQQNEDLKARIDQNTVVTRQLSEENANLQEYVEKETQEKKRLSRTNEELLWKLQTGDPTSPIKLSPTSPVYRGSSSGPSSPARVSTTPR
B5: Coiled-coil alpha-helical rod protein 1 (Homo sapiens), Q8TD31 (parent)
chain: B2 chain
partner: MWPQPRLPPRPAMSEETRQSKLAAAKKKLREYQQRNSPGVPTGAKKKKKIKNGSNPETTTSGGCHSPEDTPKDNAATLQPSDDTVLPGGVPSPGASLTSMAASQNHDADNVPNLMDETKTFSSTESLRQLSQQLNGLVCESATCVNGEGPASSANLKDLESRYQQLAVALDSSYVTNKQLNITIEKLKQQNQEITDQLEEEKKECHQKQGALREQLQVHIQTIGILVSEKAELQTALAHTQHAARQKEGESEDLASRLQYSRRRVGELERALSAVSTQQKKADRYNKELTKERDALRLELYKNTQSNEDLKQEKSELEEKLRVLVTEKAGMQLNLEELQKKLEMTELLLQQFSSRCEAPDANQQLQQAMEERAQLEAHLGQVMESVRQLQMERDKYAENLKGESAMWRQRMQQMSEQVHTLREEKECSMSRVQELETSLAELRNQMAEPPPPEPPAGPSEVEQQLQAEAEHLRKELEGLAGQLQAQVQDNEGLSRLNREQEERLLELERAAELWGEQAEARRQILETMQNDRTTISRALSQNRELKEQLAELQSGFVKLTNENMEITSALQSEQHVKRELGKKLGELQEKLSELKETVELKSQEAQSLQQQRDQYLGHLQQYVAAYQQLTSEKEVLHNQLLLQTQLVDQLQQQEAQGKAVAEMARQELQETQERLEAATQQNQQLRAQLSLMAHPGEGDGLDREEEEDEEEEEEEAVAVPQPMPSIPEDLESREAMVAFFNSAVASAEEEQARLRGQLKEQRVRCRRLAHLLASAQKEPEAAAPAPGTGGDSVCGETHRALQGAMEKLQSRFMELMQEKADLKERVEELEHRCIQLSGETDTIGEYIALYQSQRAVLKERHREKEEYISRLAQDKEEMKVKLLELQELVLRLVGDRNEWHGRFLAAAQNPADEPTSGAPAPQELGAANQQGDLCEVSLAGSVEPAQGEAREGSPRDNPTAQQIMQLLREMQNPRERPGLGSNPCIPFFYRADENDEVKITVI

The first experiment covers variants of B1. As to conditions: with vinex_human SORBS3, O60504.
Turning to MAAENSKQFWKRSAKLPGSIQPVYGAQHPPLDPRLTKNFIKERSKVNTVPLKNKKASSFHEFARNTSDAWDIGDDEEEDFSSPSFQTLNSKVALATAAQVLENHSKLRVKPERSQSTTSDVPANYKVIKSSSDAQLSRNSSDTCLRNPLHKQQSLPLRPIIPLVARISDQNASGAPPMTVREKTRLEKFRQLLSSQNTDLDELRKCSWPGVPREVRPITWRLLSGYLPANTERRKLTLQRKREEYFGFIEQYYDSRNEEHHQDTYRQIHIDIPRTNPLIPLFQQPLVQEIFERILFIWAIRHPASGYVQGINDLVTPFFVVFLSEYVEEDVENFDVTNLSQDMLRSIETDSFWCMSKLLDGIQDNYTFAQPGIQKKVKALEELVSRIDEQVHNHFRRYEVEYLQFAFRWMNNLLMRELPLRCTIRLWDTYQSEPEGFSHFHLYVCAAFLIKWRKEILDEEDFQGLLMLLQNLPTIHWGNEEIGLLLAEAYRLKYMFADAPNHYRR [A349T], the “effect of a mutation on the interaction” value is on record as “disrupting interaction strength”.

A further experiment covers variants of B2. As to conditions: with hsbp1_human HSBP1, O75506.
For W337R, the “effect of a mutation on the interaction” value is on record as “disrupting interaction strength”.

In a further experiment the parent is B3. As to conditions: with tfp11_human TFIP11, Q9UBB9.
For W337R, the “effect of a mutation on the interaction” value was “with no effect”.

The variants in the next experiment derive from B4. As to conditions: with mtus2_human MTUS2, Q5JR59.
W337R: the “effect of a mutation on the interaction” value was “disrupting interaction strength”.

The next experiment covers variants of B5. As to conditions: with goga2_human GOLGA2, Q08379.
On to W337R, for which the “effect of a mutation on the interaction” value is reported as “disrupting interaction strength”.
